The target in series [1] is T1, recombinant hemagglutinin HA1 subunit (rHA, H5) (Influenza A virus A/Vietnam/1203/2004 …, UniProt Q5EP31 17-346). The series is described as follows: BLI; rHA immobilized; apparent KD; BLI at 30 C in sodium-potassium phosphate buffer pH 7.4 ([…]. Particulars: protein: commercial, label: none (rHA), 5'-biotin (vHA BLI). For orientation: Biolayer interferometry detects binding as a change in optical thickness at a sensor tip.

Series [2] addresses T1, recombinant hemagglutinin HA1 subunit …. The series can be described thus: BLI; 50 nM control, reference signal; BLI at 30 C in sodium-potassium phosphate buffer pH 7.4 ([…]. Particulars: protein: commercial; label: none (rHA); 5'-biotin (vHA BLI).

Turning to GGGAGGGTGGGTGGG (structured_DNA) [G7nt-A_T_T], the Kd in series [1] is 0.4 ± 0.2 nM.

On to GGGTGGGTGGGTGGG (structured_DNA) [G7nt-T_T_T], for which the Kd in series [1] stood at 0.7 ± 0.2 nM.

Regarding GGGTGGGAGGGTGGG (structured_DNA) [G7nt-T_A_T], in series [1], the Kd is 0.6 ± 0.2 nM.

For GGGTGGGTGGGAGGG (structured_DNA) [G7nt-T_T_A], in series [1], the Kd is 0.8 ± 0.2 nM.

For the molecule TTGGGGTTATTTTGGGAGGGCGGGGGTT (structured_DNA) [RHA0385], the Kd in series [1] stood at 0.6 ± 0.3 nM.

Turning to GGGAGGGAGGGAGGG (structured_DNA) [G7nt-A_A_A], the Kd in series [1] was 0.6 ± 0.4 nM.

On to CGACGCACCATTTGTTTAATATGTTTTTTAATTCCCCTTGTGGTGCGTCG (ssDNA) [control oligonucleotide], for which the binding result in series [2] is listed as “no binding”.

For the molecule TTGGGGTTAGGGAGGGCGGGGGTT (structured_DNA) [G7-TTA_A_C], the Kd in series [1] (parallel G4, 86% monomer) came out at 0.4 ± 0.2 nM.

On to TTGGGGTTATTTTGGGAGGGCGGG (structured_DNA) [G7n3t], for which, in series [1] (parallel G4, 100% monomer), the Kd is 0.4 ± 0.2 nM.

Consider GGGTTATTTTGGGAGGGCGGGGGTT (structured_DNA) [G7n5t], for which the Kd in series [1] (parallel G4, 74% monomer) stood at 0.3 ± 0.2 nM.

As to TTGGGGTTATTAAGGGAGGGCGGGGGTT (structured_DNA) [G7-TTATTAA_A_C], the Kd in series [1] (parallel G4, 77% monomer) was 0.4 ± 0.2 nM.

With GGGTTATTTTGGGAGGGCGGG (structured_DNA) [G7nt], the Kd in series [1] (parallel G4, 74% monomer) was 0.7 ± 0.3 nM.

The values above are taken from article PMC7957560, “The Functional Role of Loops and Flanking Sequences of G-Quadruplex Aptamer to the Hemagglutinin of Influenza a Virus”.
